From patent US20250228895A1, “COMPOUNDS TO INHIBIT YTHDF2, T HELPER CELLS LACKING EXPRESSION OF YTHDF2, AND METHODS TO TREAT CANCER” (City of Hope, priority 2024, published 2025)

B1: CpG-Ythdf2 siRNA: Ythdf2 siRNA conjugated to TLR9 agonist CpG1668 ODN by carbon linker; SS SEQ ID NO:1-linker-SEQ ID NO:3, AS SEQ ID NO:2 (nucleic acid)
sense: TCCATGACGTTCCTGATGCT
chain: GCAAACUUGCAGUUUAUGUAU
antisense: AUACAUAAACUGCAAGUUUGCUU
modifications: carbon linker joining SEQ 1 and SEQ 3; modified_base 1..20 OTHER; phosphorothioate bond; modified_base 7 OTHER; Uracil; modified_base 8 OTHER; modified_base 13 OTHER; modified_base 14 OTHER; modified_base 15 OTHER; modified_base 17 OTHER; modified_base 19 OTHER; modified_base 21 OTHER; modified_base 1..3 OTHER; modified_base 2 OTHER; modified_base 6 OTHER; modified_base 11 OTHER; modified_base 18 OTHER; modified_base 22 OTHER; modified_base 23 OTHE

Experiments:
CX3CR1 = target: T1, CX3CR1 (Mus musculus, UniProt Q9Z0D9); experiment: Transwell BMDM migration assay with tumor supernatant and CX3CR1 blocking; assay type: cell-based; conditions: BMDMs pretreated overnight with 10 μM
T1 construct: BMDMs in the insert were pretreated overnight with 10 μM AZD8797; endogenous in cells; host or cells: primary bone-marrow-derived macrophages (BMDMs) from C57BL/6 mice
T1 sequence (Q9Z0D9 1-354): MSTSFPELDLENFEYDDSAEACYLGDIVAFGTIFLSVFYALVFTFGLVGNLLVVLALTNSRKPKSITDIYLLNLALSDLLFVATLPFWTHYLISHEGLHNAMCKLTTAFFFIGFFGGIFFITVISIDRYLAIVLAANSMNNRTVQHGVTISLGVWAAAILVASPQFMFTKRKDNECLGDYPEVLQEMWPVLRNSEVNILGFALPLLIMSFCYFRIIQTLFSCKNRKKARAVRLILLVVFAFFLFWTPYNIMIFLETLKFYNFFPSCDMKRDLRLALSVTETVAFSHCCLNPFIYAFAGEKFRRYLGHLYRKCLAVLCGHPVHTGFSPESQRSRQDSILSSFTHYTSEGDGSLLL

B16-OVA cells = experiment: WT vs Ythdf2-KO B16-OVA tumor growth in C57BL/6 mice with AZD8797 or liposomal clodronate; assay type: in vivo, mouse; conditions: 1 mg/kg i.p. once per day
Source text: FIGS. 24A-24L show loss of YTHDF2 in tumor cells promotes the recruitment of CX3CR1^+ macrophage via CX3CL1. (A) Volcano plot showing the differentially expressed genes (DEGs) between WT and Ythdf2-KO MC38 tumor. DEGs with an absolute log-transformed fold change of >0.25 and adjusted P value of <0.05 (determined by two-sided Wilcoxon rank-sum test and adjusted using the Bonferroni correction) were defined as significant. […] (C) Heatmap of differential expression genes in leukocyte migration pathway between WT and Ythdf2-KO MC38 tumor cells. […] (E) The absolute number of CX3CR1^+F4/80^+CD11b^+ TAMs from WT and Ythdf2-KO B16-OVA tumors after tumor inoculation (n=3 tumors per group). (F) Schematic representation of a transwell coculture assay involving BMDMs treated with WT or Ythdf2-KO tumor supernatant. (G) Migration cell number of BMDMs induced by WT or Ythdf2-KO B16-OVA tumor cells cultured supernatants, measured with a transwell assay (n=3 samples per group). (H) Migration cell number of BMDMs induced by WT or Ythdf2-KO B16-OVA tumor cell culture supernatant with or without AZD8797, measured with a transwell assay (n=3 samples per group). […] C57BL/6 mice received either an intraperitoneal injection of AZD8797 (1 mg/kg) or an equal amount of PBS once per day for 13 days. Tumor size was measured (n=5 tumors per group). […] Tumor size was measured (n=5 tumors per group). […]

Ythdf2 mRNA = experiment: qPCR of Ythdf2 mRNA in sorted TAMs of treated B16-OVA-bearing mice; assay type: in vivo, mouse; conditions: vs CpG-scrambled siRNA group
Experimental: FIGS. 15A-15P: TLR9 expression and CpG-Ythdf2 siRNA design as well as its uptake by macrophages associated with anti-tumor effect in vivo. FIG. 15A: Violin plot showing the Tlr9 expression across 15 cell clusters from scRNA-seq data in this study. FIG. 15B: Sequence of the CpG-linked mouse Ythdf2 siRNA conjugate (CpG-Ythdf2 siRNA). FIGS. 15C-15D: BMDMs were incubated with different doses of Cy3-labeled CpG-Ythdf2 siRNA (FIG. 15C) or with 100 nM Cy3-labeled CpG-Ythdf2 siRNA for the indicated times (FIG. 15D). CpG-Ythdf2 siRNA uptake was examined by flow cytometry. Data shown are representative histograms. FIG. 15E: Cy3-labeled CpG-Ythdf2 siRNA or CpG only was injected into B16-OVA tumors of C57BL/6 mice. […] Median fluorescence intensity (MFI) is shown. Data are shown as mean±SD and were analyzed with an unpaired two-tailed t-test (FIGS. 15F-15I) or one-way ANOVA with the Holm-Šídík post-test (FIGS. 15J-15K) or two-way ANOVA with the mixed-effects model and adjusted by Holm-Šídík post-test (FIG. 15L). […]
Quantitative real-time RT-PCR (qPCR). RNA was isolated using an RNeasy Mini Kit (QIAGEN) and then reverse transcribed to cDNA with PrimeScript RT Reagent Kit with gDNA Eraser (Takara Bio) following the manufacturer's instructions. mRNA expression levels were analyzed using SYBR Green PCR Master Mix and a QuantStudio 12K Flex Real-Time PCR System (both from Thermo Fisher Scientific).

B16-OVA = B16-OVA tumor model, intra-tumoral CpG-Ythdf2 siRNA; assay type: in vivo, mouse
Source text: FIGS. 7A-7G: TLR9-targeted YTHDF2 silencing in TAMs suppresses tumor growth and synergizes with anti-PD-L1 blockade. FIG. 7A: Scheme of therapeutic strategies that use CpG-Ythdf2 siRNA alone or in combination with anti-PD-L1. FIG. 7B: B16-OVA or MC38 tumor growth in mice treated with CpG-Ythdf2 siRNA, CpG-scrambled siRNA, CpG only, or PBS (n=5 per group). FIG. 7C: Percentages of tumor-infiltrating IFN-γ-producing CD8^+ T cells in B16-OVA (n=5 per group) or MC38 tumor models (n=5 for PBS group; n=3 for CpG only, CpG-Scrambled siRNA, and CpG-Ythdf2 groups) as described in FIG. 7B. For the MC38 model, tumors in the CpG only, CpG-Scrambled siRNA, and CpG-Ythdf2 groups were pooled for flow cytometry due to small tumor size (sample size after pooling n=3). FIG. 7D: B16-OVA tumor growth in mice treated with CpG-Ythdf2 siRNA, CpG-scrambled siRNA, or in combination with anti-PD-L1 (left, n=5-6 per group) and percentages of tumor-infiltrating IFN-γ-producing CD8^+ T cells (right, n=5 for CpG-scrambled siRNA plus IgG and CpG-scrambled siRNA plus anti-PD-L1 groups, n=3 for CpG-Ythdf2 siRNA plus IgG and CpG-Ythdf2 siRNA plus anti-PD-L1 groups). Tumors from the CpG-Ythdf2 siRNA plus IgG and CpG-Ythdf2 siRNA plus anti-PD-L1 groups were pooled for flow cytometry due to small tumor size (sample size after pooling n=3). FIG. 7E: IFN-γ and granzyme B production by Ly95 T cells when co-cultured with WT or YTHDF2 knock-down macrophages preloaded with NY-ESO157-c165 peptide (n=5). FIGS. 7F-7G: Colon cancer sections were immunohistochemically stained with YTHDF2 plus CD68 or CD8 alone. Dash lines outline the edge of tumor zones. Asterisk marks the stroma tissues. Representative YTHDF2^+CD68^+ high (Patient #11) and YTHDF2^+CD68^+ low (Patient #2) specimens are shown (FIG. 7F). Scale bars=100 μm. Black rows mark YTHDF2^+CD68^+ cells. Correlations between YTHDF2^+CD68^+ cells and CD8^+ T cells in the stroma area are shown (FIG. 7G: n=18 patients). Data are shown as mean SD and were analyzed with one-way ANOVA with the Holm-Šídík post-test (FIGS. 7C-7E) or two-way ANOVA with mixed-effects model (FIGS. 7B, 7D) and adjusted by the Holm-Šídík post-test or Spearman correlation (FIG. 7G). Data in FIGS. 7B-7E are representative of at least two independent experiments (*P<0.05, **P<0.01, ***P<0.001, ****P<0.0001).
Tumor models and treatments. B16-OVA (2×10^5) or MC38 cells (2×10^5) were implanted subcutaneously (s.c.) into the flank of mice. […] For the lung metastatic melanoma model, B16F10 cells (1×10^5) were injected intravenously (i.v.) into the mice. Fourteen days after injection, mice were euthanized for post-mortem analysis. Metastatic nodules in the lung were analyzed macroscopically and counted. […] To co-transfer with macrophages, B16-OVA (2×10^5) or MC38 cells (2×10^5) were mixed with an equal number of bone marrow-derived macrophages (BMDMs) from WT or Ythdf2-cKO mice and implanted s.c. into the flank of WT mice, or Rag1^−/− mice injected i.v. without or with CD3^+ T cells (5×10^6). To knock down Stat1 using siRNA, BMDMs were transfected with siGENOME mouse Stat1 siRNA (Catalog: M-058881-02-0005, Horizon) at 100 nM using lipofectamine 3000 (Invitrogen). 48 h later, cells were collected and mixed with an equal number of B16-OVA cells (2×10^5) and implanted s.c. into the flank of WT mice.
For the uptake studies, CpG-Ythdf2 siRNA (SS) was labeled using […] Cy3. In vivo delivery of CpG-Ythdf2 siRNA for treatment began when the largest diameter of the tumors reached 5-8 mm-typically 5-7 days after inoculation. Mice were injected intratumorally every other day with 5 mg/kg of CpG-Ythdf2 siRNA, CpG-scrambled siRNAs, CpG alone or PBS in a volume of 20 μL. Tumor growth was monitored every other day.

MC38 = MC38 tumor model, intra-tumoral CpG-Ythdf2 siRNA; assay type: in vivo, mouse
Source text: FIGS. 7A-7G: TLR9-targeted YTHDF2 silencing in TAMs suppresses tumor growth and synergizes with anti-PD-L1 blockade. FIG. 7A: Scheme of therapeutic strategies that use CpG-Ythdf2 siRNA alone or in combination with anti-PD-L1. FIG. 7B: B16-OVA or MC38 tumor growth in mice treated with CpG-Ythdf2 siRNA, CpG-scrambled siRNA, CpG only, or PBS (n=5 per group). FIG. 7C: Percentages of tumor-infiltrating IFN-γ-producing CD8^+ T cells in B16-OVA (n=5 per group) or MC38 tumor models (n=5 for PBS group; n=3 for CpG only, CpG-Scrambled siRNA, and CpG-Ythdf2 groups) as described in FIG. 7B. For the MC38 model, tumors in the CpG only, CpG-Scrambled siRNA, and CpG-Ythdf2 groups were pooled for flow cytometry due to small tumor size (sample size after pooling n=3). […] Data are shown as mean SD and were analyzed with one-way ANOVA with the Holm-Šídík post-test (FIGS. 7C-7E) or two-way ANOVA with mixed-effects model (FIGS. 7B, 7D) and adjusted by the Holm-Šídík post-test or Spearman correlation (FIG. 7G). […]
(§1) Tumor models and treatments. […] Metastatic nodules in the lung were analyzed macroscopically and counted. […]
For the uptake studies, CpG-Ythdf2 siRNA (SS) was labeled using fluorescein Cy3. […] Tumor growth was monitored every other day.

B16F10 = B16F10 lung metastasis model, intravenous CpG-Ythdf2 siRNA; assay type: in vivo, mouse
Experimental: FIGS. 15A-15P: TLR9 expression and CpG-Ythdf2 siRNA design as well as its uptake by macrophages associated with anti-tumor effect in vivo. FIG. 15A: Violin plot showing the Tlr9 expression across 15 cell clusters from scRNA-seq data in this study. FIG. 15B: Sequence of the CpG-linked mouse Ythdf2 siRNA conjugate (CpG-Ythdf2 siRNA). FIGS. 15C-15D: BMDMs were incubated with different doses of Cy3-labeled CpG-Ythdf2 siRNA (FIG. 15C) or with 100 nM Cy3-labeled CpG-Ythdf2 siRNA for the indicated times (FIG. 15D). CpG-Ythdf2 siRNA uptake was examined by flow cytometry. Data shown are representative histograms. FIG. 15E: Cy3-labeled CpG-Ythdf2 siRNA or CpG only was injected into B16-OVA tumors of C57BL/6 mice. […] Data shown are representative histograms. FIG. 15F: mRNA levels of Ythdf2 in macrophages sorted from tumor tissues of B16-OVA-bearing mice treated with CpG-Ythdf2 siRNA or CpG-scrambled siRNA (n=3 per group). […] Median fluorescence intensity (MFI) is shown. Data are shown as mean±SD and were analyzed with an unpaired two-tailed t-test (FIGS. 15F-15I) or one-way ANOVA with the Holm-Šídík post-test (FIGS. 15J-15K) or two-way ANOVA with the mixed-effects model and adjusted by Holm-Šídík post-test (FIG. 15L). […]
as §1

[1] = 5 mg/kg intratumorally every other day, vs CpG-scrambled siRNA
[2] = intra-tumoral, vs CpG-scrambled siRNA
[3] = vs CpG-Ythdf2 siRNA alone or anti-PD-L1 mAb alone

| Molecule | macrophage migration induced by WT vs Ythdf2-KO tumor supernatant (CX3CR1) | difference of tumor growth between WT and Ythdf2-KO tumor (B16-OVA cells) | mRNA levels of Ythdf2 in sorted TAMs (Ythdf2 mRNA) | tumor growth (B16-OVA; [1]) | tumor growth in Batf3 KO mice (B16-OVA; Batf3 KO mice lacking cDC1 cells, vs CpG-scrambled siRNA) | proportion of M1 TAMs (B16-OVA; [2]) | proportion of M2 TAMs (B16-OVA; [2]) | CD8+ cytotoxic T cell responses, combination with anti-PD-L1 antibody (B16-OVA; [3]) | tumor growth, combination with anti-PD-L1 antibody (B16-OVA; [3]) | percentage of IFN-γ-producing CD8+ T cells (B16-OVA; vs CpG-scrambled siRNA group) | tumor growth (MC38; [1]) | percentage of IFN-γ-producing CD8+ T cells (MC38; vs CpG-scrambled siRNA group) | tumor metastasis (lung metastatic nodules) (B16F10; intravenous injection, vs CpG-scrambled siRNA) | percentage of IFN-γ-producing CD8+ T cells (B16F10; lung, vs CpG-scrambled siRNA group) |
| --- | --- | --- | --- | --- | --- | --- | --- | --- | --- | --- | --- | --- | --- | --- |
| CC(C)C[C@H](CO)Nc1nc(S[C@@H](C)c2ccccc2)nc2nc(N)sc12 [AZD8797] | differences in macrophage migration between WT and Ythdf2 KO groups disappeared | abolished the difference of tumor growth | – | – | – | – | – | – | – | – | – | – | – | – |
| B1 | – | – | significantly lower | significantly inhibited tumor growth | still inhibited tumor growth | significantly up-regulated | down-regulated | increased | reduced tumor growth | significantly higher | significantly inhibited tumor growth | significantly higher | inhibited tumor metastasis | significantly higher |
